Test results taken from US12043852.

Biological target: omega-dCas9 clone 4 (evolved SpCas9) D10A,H840A,E1219V; residues I122 and D182 also mutated, substitutions not stated (Streptococcus pyogenes) (UniProt Q99ZW2)
Assay: cell_activity
Conditions: E. coli activation

GGAGCCCACCGAGUACCUGG / GGAGCCCACCGAGTACCTGGAGG / CCTCCAGGTACTCGGTGGGCTCC [Doench 2 sgRNA (spacer) ; Doench 2 target, AGG PAM]
activity (luciferase activity) (PAM AGG): 238

GGAGCCCACCGAGUACCUGG / GGAGCCCACCGAGTACCTGGGTG / CACCCAGGTACTCGGTGGGCTCC [Doench 2 sgRNA (spacer) ; Doench 2 target, GTG PAM]
activity (luciferase activity) (PAM GTG): 120

GGAGCCCACCGAGUACCUGG / GGAGCCCACCGAGTACCTGGGAG / CTCCCAGGTACTCGGTGGGCTCC [Doench 2 sgRNA (spacer) ; Doench 2 target, GAG PAM]
activity (luciferase activity) (PAM GAG): 186
